Read-outs that look alike come from different tables or passages of the source.
Legend:
Test in all cases: enzyme inhibition kinetics
[1] = target: factor XIa catalytic domain K170A (human) (UniProt P03951)
[2] = target: factor XIa catalytic domain K175A (human)
[3] = target: factor XIa catalytic domain K179A (human)
[4] = target: factor XIa catalytic domain R173A (human) (UniProt P03951)
[5] = target: full-length factor XIa autolysis loop variant fXIa-144-149A (human)
[6] = target: factor XIa catalytic domain K175A (human); remark: listed apart in the source
[7] = target: full-length factor XIa autolysis loop variant fXIa-144-149A (human); remark: listed apart in the source
[8] = target: factor XIa catalytic domain K170A (human) (UniProt P03951); remark: listed apart in the source
[9] = target: factor XIa catalytic domain K175A (human); remark: listed apart in the source
[10] = target: factor XIa catalytic domain K179A (human); remark: listed apart in the source
[11] = target: factor XIa catalytic domain R171A (human) (UniProt P03951)
[12] = target: factor XIa catalytic domain R173A (human) (UniProt P03951); remark: listed apart in the source
[13] = target: factor XIa catalytic domain with residues 170, 171 and 173 changed to alanine (human) (UniProt P03951)
[14] = target: factor Xa mutants with substitutions for basic residues in the autolysis loop
[15] = target: full-length factor XIa autolysis loop variant fXIa-144-149A (human); remark: listed apart in the source
[16] = target: recombinant wild type factor XIa catalytic domain (human) (UniProt P03951)
wild type factor Xa = wild type factor Xa (UniProt P00742)
[17] = target: wild type recombinant factor XIa, full length (human)

B1: C1-inhibitor (natural protein)
chain: NPNATSSSSQDPESLQDRGEGKVATTVISKMLFVEPILEVSSLPTTNSTTNSATKITANTTDEPTTQPTTEPTTQPTIQPTQPTTQLPTDSPTQPTTGSFCPGPVTLCSDLESHSTEAVLGDALVDFSLKLYHAFSAMKKVETNMAFSPFSIASLLTQVLLGAGENTKTNLESILSYPKDFTCVHQALKGFTTKGVTSVSQIFHSPDLAIRDTFVNASRTLYSSSPRVLSNNSDANLELINTWVAKNTNNKISRLLDSLPSDTRLVLLNAIYLSAKWKTTFDPKKTRMEPFHFKNSVIKVPMMNSKKYPVAHFIDQTLKAKVGQLQLSHNLSLVILVPQNLKHRLEDMEQALSPSVFKAIMEKLEMSKFQPTLLTLPRIKVTTSQDMLSIMEKLEFFDFSYDLNLCGLTEDPDLQVSAMQHQTVLELTETGVEAAAASAISVARTLLVFEVQQPFLFVLWDQQHKFPVFMGRVYDPRA
k2 (second-order inhibition rate constant) [1]: 10000 M⁻¹ s⁻¹ | k2 (second-order inhibition rate constant) [2]: 7300 M⁻¹ s⁻¹ | k2 (second-order inhibition rate constant) [3]: 8800 M⁻¹ s⁻¹ | k2 (second-order inhibition rate constant) [4]: 9100 M⁻¹ s⁻¹ | k2 (second-order inhibition rate constant) [5]: 19500 M⁻¹ s⁻¹ | k2 (second-order inhibition rate constant) [6]: 1000 M⁻¹ s⁻¹ | k2 (second-order inhibition rate constant) [7]: 600 M⁻¹ s⁻¹ | k2 (second-order inhibition rate constant) [8]: 734000 M⁻¹ s⁻¹ | k2 (second-order inhibition rate constant) [9]: 730000 M⁻¹ s⁻¹ | k2 (second-order inhibition rate constant) [10]: 778000 M⁻¹ s⁻¹ | k2 (second-order inhibition rate constant) [11]: 261000 M⁻¹ s⁻¹ | k2 (second-order inhibition rate constant) [12]: 667000 M⁻¹ s⁻¹ | k2 (second-order inhibition rate constant) [13]: 430000 M⁻¹ s⁻¹ | fold effect of heparin on inhibition [14]: 4 fold | k2 (second-order inhibition rate constant) [15]: 20600 M⁻¹ s⁻¹ | k2 (second-order inhibition rate constant) [16]: 750000 M⁻¹ s⁻¹ | fold effect of heparin on inhibition (wild type factor Xa): 35 fold | k2 (second-order inhibition rate constant) [17]: 536000 M⁻¹ s⁻¹
